Results on 1 substance are retold here after paper PMC12622487.

This series deals with Cys32 (UniProt position 32, FSATWCGPCKM). To be noted: Reduced (free thiol) form is presumed; not explicitly stated for the pKa determination.

One may read the pKa as the pH at which an ionisable group is half protonated. Read a low pKa as a stronger acid or weaker base. “Thioredoxin-1 (native recombinant human TRX, rhTRX) (Homo sapiens)”: the pKa is 6.3.
